The nature of the data set: label from the status in PepcDB records.
With “METLELFKVISRWLFLLSIGYYLLTNLQWYSYKIERVFFKHHKWRWHILYFFMPILFFFLLGDYFYIYLYVAQLPGVMLWAKKLDKPLIFTGRVKRFFAIYAGFMLFSELLCTTTGGECDKVLYLFPLFFTILITYVLERVLLNRYATAAKDKLASMPNLTIIAITGSYGKTSLKNFLAQILNDNFKVHASPRSVNTFAGIVADINENLSPLSDIYIAEAGARTRGDIKEIGVLLEHHYGIVGKVGEQHMEYFRTLENVRETKFELAQSPRLKELFSYEGNTPPSGIKATSFPTETRNIKATLKGTSFEMLIEGQFYPFETEVLGEFNVTNISAAILVALRLGIPIEKIQRQVARLKPIPHRLQKMEVNLKLILDDSFNGNLEGMLEAIRLSSLYYGRKVIVTPGLVESTEEANTTLAQAINETFDIAILTGELNLKTLSAHIQKPQKVVVKEKEALEEVLKATTREGDLILFANDAPSYI”, the protein production result is listed as “failed”. With “MVNFDCVIEELDEKTKEMLRVIDEDADSFAARAEMYYKKRPELIAMVEEFYRSHRSLAERYDLLRPSSVHKHGSDSESHEKSSTCDESSWSEACETHEEYAESEIDNGESKWVDESEIDGIVEEIEPSEVVYSEGNGNSEMMKIEIERLREENKVYSEMVREKDEEKREAIRQMSVAIQMLKEENSELKKRVTNTVVARRNKEGGDSQRKQQMWKPFEFKKIKLEGLWGKGFGNWALPNTDSTSKELMTL”, the protein production entry is “failed”. With “MSSHNMTEVLVGGAVLAAALTFGIYASQATGLSRGTGGYELAASFRSLEGVTVGTDVRLAGVKIGTVTGVDLNPESYRADTRFTVSEGIQIPDDSAAVISSEGLLGGNFLEIMPGGSAFYFEPGDVIDDTQGAVSLISLLVKFVAGDGSGELEHHHHHH” the entry was “not failed”; with “MSLGKRIFVFDTTLRDGEQVPGCQLNTEEKIIVAKALDELGVDVIEAGFPVSSPGDFNSVVEITKAVTRPTICALTRAKEADINIAGEALRFAKRSRIHTGIGSSDIHIEHKLRSTRENILEMAVAAVKQAKKVVHEVEFFCEDAGRADQAFLARMVEAVIEAGADVVNIPDTTGYMLPWQYGERIKYLMDNVSNIDKAILSAHCHNDLGLATANSLAALQNGARQVECTINGIGERAGNTALEEVVMAMECHKETLGLETGINHKKLVPISHLVSTLMRMQVQSNKAIVGRNAFAHSSGIHQDGFLKHRETYEIIDEGHHHHHH”, “not failed”; with “MTDDKKIRAAIVGYGNIGRYALQALREAPDFEIAGIVRRNPAEVPFELQPFRVVSDIEQLESVDVALVCSPSREVERTALEILKKGICTADSFDIHDGILALRRSLGDAAGKSGAAAVIASGWDPGSDSVVRTLMQAIVPKGITYTNFGPGMSMGHTVAVKAIDGVKAALSMTIPLGTGVHRRMVYVELLPGHNLEEVSAAIKADEYFVHDETHVIQVDEVDALIDMGHGVRMVRKGVSGSTQNQRMSFDMEINNPALTGQVLVCAARAAMRQQPGAYTLQEIPVIDLLPGDREQWIGKLC”, “not failed”. Regarding “MNHSIPTLRTERLTLRPLAMADFPAYRDFMASPRSTGVGGPYDLPSTWGVFCHDLANWHFFGHGALMIDLGETGECIGQIGINHGPLFPEKELGWLLYEGHEGRGYAAEAAVALRDWAFETLNLPTLVSYVSPQNRKSAAVAERIGGTLDPLAPRSDPEDLVYRYHQVKTA”, the protein production result is “not failed”. With “MSFKRDRGDYKGRIDWFTIILYLLLVVAGWFAVCGASYDFDISHLFMMGGRPMMQLLWIGLAVVIGFMVLLMETDIFESLAPVFYAAMLGLLALTILIAPDIKGSHSWLVIGPLRLQPAEFAKVTTALFLAWKLNQNDFVLRGMKAYASTFAIILIPVLLILMQNETGSALVYIAFFLALYREGMSGVFIGIAFCAVLFFVTALKLQGDVWWGHTDAAEWSVVSMAFVIGFFLVRIYTKERGRFYVVAAGLTAVTYAVAIVLSYFVSVDFVLVAYGLLAALIVWALSMAIKRYVLSYALIAVFALCSVGYFYSVDYVFNKVMQPHQQMRIRVALGIEDDLRGGGYNVDQSKIAIGSGGFMGKGFLKGTQTKLKYVPEQDTDFIFCTVGEEQGFLGSVLLLIGYATLIIRIVALAERQTKVFSRVYGHSVAAILLFHLSINVGMVIGLVPVIGIPLPFFSYGGSSLWGFTLLIFIFLRLDADRDCR” the entry was “failed”; with “MMKPSVSAAILAAGTSTRMNEMKQLAKIQGTYMLKYVIDQVSNHPFQHIFVIVGHQADIVMKMIQVEDKRVQWLVNDQYKQGQSTSFKLAMEQARQYGDAVMMFLADQPLIEKETVNIVLNEGITRVQEEPFIVRPMYEKKEGHPVYWGNIHALDCSAVNGDKGGKTLMEELERMLIPVHDQGVLVDVDTCEDYKKVNDLMKRKSPSTHLEHHHHHH”, “not failed”. With “MKIIENYKGLPKSIYFLFLVQVINRLGDFVFPFLSLLLTQKLKFSMATTGTIVMIASVVGVPASFIGGKIADKSSRKLTYILGQSFAAIVILICGFINIPNLTVALLIASSFFNGFVRPTISAMVADLLPASKRQMGSSLLYLGINFGVAVGPIIAGFLFNNYLSLLFIIDALTSFIAVIIVLILIPDTKAVKHVGEDRIEEKEEKGNLLQILLKRPFVICFFGVDMIYSLAYRQCSFSMPIMMNKVFGYSGSSKYGFLMSVNALTVVALTIFVMHVTKRFRTLTNMAFSGLFYAVGFGMISIIGNSYLLFIISTVIWTMGEILGATNFGVYLANNSPRNCRARFGAVGELISSIGGAIGIFGAGKLIESYGINMIWRVIFIIVLLGAGLMLTLQYFQTKRVEQKIAHEI”, the protein production entry is listed as “failed”. With “MNPANGEVTSYWFPGTTSGILTRNGSMIHLLSITASVLHPDDPSLSERESVQVQQYRLSSLLAAVLLPVFGTLYSWADPQAVDPAWIRLALSGLLLGLFVGSYLSDRVCRNYVPLT” the entry was “failed”. For “MVKDLSDMSLKELWQLFPIFLVEHKEEWEDWYEEEKERLLHLLPSQSIKSISHIGSTAVPDIWAKNIVDILLEVPEKEDLQDFKKRLLDAGYLLMSEGEKRLSFNKGYTKDGFAEKVFHLHLRYQGDNDELYFRDYLREYPEVAKDYERLKLGLWEKYEHNRDAYTDAKSDFIRKYTQKAKKNDKGKDN” the value was “not failed”; for “MSLGRKQQYGTLASIAAKLGISRTTVSNAYNRPEQLSAELRQRILDTAEDMGYLGPDPVARSLRTRRAGAIGVLLTEDLTYAFEDMASVDFLAGVAQAAGDTQLTLIPASPASSVDHVSAQQLVNNAAVDGVVIYSVAKGDPHIDAIRARGLPAVIADQPAREEGMPFIAPNNRKAIAPAAQALIDAGHRKIGILSIRLDRANNDGEVTRERLENAQYQVQRDRVRGAMEVFIEAGIDPGTVPIMECWINNRQHNFEVAKELLETHPDLTAVLCTVDALAFGVLEYLKSVGKSAPADLSLTGFDGTHMALARDLTTVIQPNKLKGFKAGETLLKMIDKEYVEPEVELETSFHPGSTVAEGHHHHHH”, “not failed”.

As for “MSRMRVLRLRLYGVVFLAVLALLLSLSVAVYQQVFTPAVRIKLEADSLGNQLDPRADVKLRGLLVGEVRAVHADGTKATLDIALKPEYVASIPSDAHARLLPKTLFGEKYVDLVAPARSSARPIRAGDVITQDRTRVGIELQQLMNDLLPLLRTVQPGKLNATLSAFATALEGRGDRIGDNLTRVEDYLHRLNPHLPSLTEDFARLADVAEVYGDAAPDLMEILRNTVTTSRTLVEQRDRLASALTTTATAAGTADDFLDANGDRLITLGRVSRPTLDLFARYSPEYPCLFAGLVREEQASEQAFRGGKMHITLEVVRQQGAYEPGEYPRYDDRSGPNCRDLPHPPVPAPGVHLNDGSTKGSASGGPGGVSATRAEQRSVGSLVAPVLGVPADQVPPVATLLFGPMARGTAVSVA”, the protein production result was “failed”. With “MACEGAPEVRIGRKPVMNYVLAILTTLMEQGTNQVVVKARGRNINRAVDAVEIVRKRFAKNIEIKDIKIDSQEIEVQTPEGQTRTRRVSSIEICLEKAGESA”, the protein production entry is recorded as “not failed”.

For the sequence “MFRKVLFPTDFSEGAYRAVEVFEKRNKMEVGEVILLHVIDEGTLEELMDGYSFFYDNAEIELKDIKEKLKEEASRKLQEKAEEVKRAFRAKNVRTIIRFGIPWDEIVKVAEEENVSLIILPSRGKLSLSHEFLGSTVMRVLRKTKKPVLIIKEVDENELAKTKGTSG”, the protein production entry is “not failed”. For “MKILSFAVLAAICLPMMPITTFAAETSATNALSQSQLFSRGDEYANVKISPTGKYLSAITSVEGKNVLLVLDAQTKKLLNAIRFPSNAQVGTYEWASSERIVLAKEYLKGWSDVPQYYGELMAVNADGSRPAYLFGFNSGEQQTGSNIKKNTAIKATAFILDPLPDDERYMLVNAIPWNNESSLNLELKQDVYRVDLFSGVRKRITGSPIGQARFMTDHEGEVRFVTGEDGQNVTKVFYRKDGDWVNTDKLNLGLSDFTPISFADNKNTIYAAGRVGTETLGVYRINLETGEKTEIIQDEVVDPSNFWINGTNKQLYAVEFENGYPSYAFVDNNDNHAKLLKDLIAALPGHQVQIVSETRNGEQLVVIAFNDRNPGDYYLFDTKKLKLEYLAAARKWLDPEQMAEVKPISFTNRDGQKIHGYLTLPYGKEAKNLPLVVNPHGGPHGIRDWWGFDPQNQLLAQNGMAVLQVNFRGSGGYGERFEQAGYQKWGSDIQHDIIDATQYVIGQGFVDKERICIAGGSFGGYSALQSAVLAPDMFKCAVGFAGVYDLELMFDEGDVARTRSGTSYLKDVLGQDKATLKAMSPSENVAKLKANLLLVHGGEDERAPIEQLESLEKALKNHNYPYQKLVMDNEGHGFYNDTHRAKYYDQMLSFLKTNLKL” the value was “failed”. For “MKIRVADEKELPMILQFLTEVKAYMDVVGITQWTKDYPSQGDIQEDITKKRLYLLVHEEMIFSMATFCMEQEQDFVWLKRFATSPNYIAKGYGSLLFHELEKRAVWEGRRKMYAQTNHTNHRMIRFFESKGFTKIHESLQMNRLDFGSFYLYVKELENQSIV” the value was “not failed”; for “TLIYGHRGAKGEAPENTLASFQRCLEHGVNRCELDLHLSRDGELMVIHDPTLKRTTGRRGKVAEHDAATLATYDARKGGPGWVRPTPIPRLEELFEKCPFEHWQLEVKSASRERAARTVTRIRELTERFGNRDKVTVTSGSRTVLKALNELTPELSRGLVAEYAWLDPLKVAQHYGCALLALNWTLCTPERLLKAQRQGLHVSVWTVNEPALMRRLADFGVDSLITDFPGLASATLGNR”, “failed”; for “METRAHHVLIGLFSVIVIGAALLFGLWLAKSGSEGKFNYYDIVFNEAVSGLSQGSSVQYSGIKVGDVAFLRLDPKDPRKVWARIRVVASAPIKQDTTAKLALTGITGTSIIQLSSGTPASPMLEGKDGKIPVIVATPSPLTQLLSNGEDLMGNINQLIARFSNLLSEENTARISRTLDHLDQATGALSAERENVSAVMQQLAQASRQANAALAQASELMRSANGLLNEQGKGMLENANKTMASLERTSATLDQLISENRHSLDGGIQGLAELGPAVSELRDTLAALRGISRRLEENPANYLLGREKTKEFTP”, “failed”. In the case of “MDVSGQLNTETVGSSLRKIRSFSHYEKHDEVFHSDQSHIVVVHNGQLRVQTGDCTIDVVAGSGVFLSQGDYLLEYSPQGGNYHSSIIEFDNELVSQLLQKHSDLLMTLPKVDKLNSGLFSFGLNILIEQVLSGMKTLEEQSYPDAIMRLKYEEMLILLLHSQGGEVLYALLSQQTNRTSDRLRRFMEQHYLKEWKLTDYAQEFGASLTTFKELFNEHYGISPRAWISERRLLHAHKLLLTSKMSIVDVAMEAGFSSQSYFTQSYRRRFGTTPSKVRSGDEQVAIAN”, the protein production entry is “failed”. Take “MNILLLIGGLILILLGANGLTDGAASVAKRFRIPSIVIGLTIVAFGTSAPELTVSVASALKGSADIAIGNVVGSNIFNTLMIVGCTALFAPIIITRNTLRKEIPLCILSSVVLLICANDIFLDNATENILNRVDGLLLLCFFAIFMGYTFAIAFPKSSAAPEPAAPEHTAPEEEIKLLSWWKSILYIIGGLAALIYGGQLFVNGATGIARSMGVSESIIGLTLVAGGTSLPELATSIVAALKKNPEMAIGNVIGSNLFNIFFVLGCSASITPLHLSGITNFDLFTLVGSSILLWLFGLFFAKRTITRIEGSIMILCYVAYTVVLIYNS”: the protein production result is “failed”.

The values above are taken from a protein production outcome set (Wang et al. 2014).
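Further: failed if final PepcDB status was selected cloned or expressed and not failed if soluble or beyond.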
